Earlier results, collected in paper PMC11816975, “Bioactive Peptides from Milk Proteins with Antioxidant, Anti-Inflammatory, and Antihypertensive Activities” (Foods, 2025).

What was measured:
NO production = test system: NO production; set-up: method as in PMID 23768340; conditions: at 100 µg/mL
[1] = set-up: method as in PMID 23768340; conditions: at 100 µg/mL

Molecule	DPPH• radical scavenging capacity (at 500 µg/mL)	inhibition of NO production (NO production)	ferric reducing power [1] [mM Fe^2+]	DPPH• inhibition (at 100 µg/mL, ref Habib et al. 55) [%]
bLF: bovine lactoferrin, orthologue compared with eLF (protein, UniProt P24627 20-708, looked up) Lactotransferrin: APRKNVRWCTISQPEWFKCRRWQWRMKKLGAPSITCVRRAFALECIRAIAEKKADAVTLDGGMVFEAGRDPYKLRPVAAEIYGTKESPQTHYYAVAVVKKGSNFQLDQLQGRKSCHTGLGRSAGWIIPMGILRPYLSWTESLEPLQGAVAKFFSASCVPCIDRQAYPNLCQLCKGEGENQCACSSREPYFGYSGAFKCLQDGAGDVAFVKETTVFENLPEKADRDQYELLCLNNSRAPVDAFKECHLAQVPSHAVVARSVDGKEDLIWKLLSKAQEKFGKNKSRSFQLFGSPPGQRDLLFKDSALGFLRIPSKVDSALYLGSRYLTTLKNLRETAEEVKARYTRVVWCAVGPEEQKKCQQWSQQSGQNVTCATASTTDDCIVLVLKGEADALNLDGGYIYTAGKCGLVPVLAENRKSSKHSSLDCVLRPTEGYLAVAVVKKANEGLTWNSLKDKKSCHTAVDRTAGWNIPMGLIVNQTGSCAFDEFFSQSCAPGADPKSRLCALCAGDDQGLDKCVPNSKEKYYGYTGAFRCLAEDVGDVAFVKNDTVWENTNGESTADWAKNLNREDFRLLCLDGTRKPVTEAQSCHLAVAPNHAVVSRSDRAAHVKQVLLHQQALFGKNGKNCPDKFCLFKSETKNLLFNDNTECLAKLGGRPTYEEYLGTEYVTAIANLKKCSTSPLLEACAFLTR	approximately 33%	–	–	–
cLF: isolated camel lactoferrin (protein, UniProt Q9TUM0 20-708, looked up) Lactotransferrin: ASKKSVRWCTTSPAESSKCAQWQRRMKKVRGPSVTCVKKTSRFECIQAISTEKADAVTLDGGLVYDAGLDPYKLRPIAAEVYGTENNPQTHYYAVAIAKKGTNFQLNQLQGLKSCHTGLGRSAGWNIPMGLLRPFLDWTGPPEPLQKAVAKFFSASCVPCVDGKEYPNLCQLCAGTGENKCACSSQEPYFGYSGAFKCLQDGAGDVAFVKDSTVFESLPAKADRDQYELLCPNNTRKPVDAFQECHLARVPSHAVVARSVNGKEDLIWKLLVKAQEKFGRGKPSGFQLFGSPAGQKDLLFKDSALGLLRISSKIDSGLYLGSNYITAIRGLRETAAEVELRRAQVVWCAVGSDEQLKCQEWSRQSNQSVVCATASTTEDCIALVLKGEADALSLDGGYIYIAGKCGLVPVLAESQQSPESSGLDCVHRPVKGYLAVAVVRKANDKITWNSLRGKKSCHTAVDRTAGWNIPMGLLSKNTDSCRFDEFLSQSCAPGSDPRSKLCALCAGNEEGQNKCVPNSSERYYGYTGAFRCLAENVGDVAFVKDVTVLDNTDGKNTEQWAKDLKLGDFELLCLNGTRKPVTEAESCHLAVAPNHAVVSRIDKVAHLEQVLLRQQAHFGRNGRDCPGKFCLFQSKTKNLLFNDNTECLAKLQGKTTYEEYLGPQYVTAIAKLRRCSTSPLLEACAFLMR	–	about 5%	0.317	2.77
